{"source": "patent US20250313611A1", "molecular_target": "SARS-COV-2 spike [change] trimer ([change]-foldon-His-Strep) (SARS-CoV-2 (Wuhan)) (UniProt P0DTC2)", "data": [{"substance": "VHH72-S56A", "values": [{"measurement": "IC50 (read off the curve)", "value": 0.6, "unit": "mg/L"}]}]}
